Source: US20240116985A1 (published 2024)
Starred links: 1 amine or outer side, 2 acyl side, 3 side chain; linkers in the order of their positions; H or OH if unused. Positions of bridges follow the written chain, without caps; N, C: chain ends. Non-standard residues stand in square brackets, D forms with d. Primed or numbered codes have the meaning given here. B5(15) = 2-amino-2-(pent-4-en-1-yl)hept-6-enoic acid (2,2-bis(4-pentenyl)glycine), stitching residue bearing two staples, C=CCCCC(CCCC=C)(N[*:1])C(=O)[*:2]; B5(17) = 2,2-bis(4-pentenyl)glycine = 2-amino-2-(pent-4-en-1-yl)hept-6-enoic acid, stitching residue, C=CCCCC(CCCC=C)(N[*:1])C(=O)[*:2]; B5(23) = 2-amino-2-(pent-4-en-1-yl)hept-6-enoic acid (2,2-bis(4-pentenyl)glycine), stitching residue, C=CCCCC(CCCC=C)(N[*:1])C(=O)[*:2]; B5(4) = 2,2-bis(4-pentenyl)glycine = 2-amino-2-(pent-4-en-1-yl)hept-6-enoic acid (stitching residue), C=CCCCC(CCCC=C)(N[*:1])C(=O)[*:2]; Phe(3-F) = N[C@@H](Cc1cccc(F)c1)C(=O)O; Phe(4-F) = N[C@@H](Cc1ccc(F)cc1)C(=O)O; Bta = N[C@@H](Cc1csc2ccccc12)C(=O)O; αAllylPro = C=CC[C@@]1(C(=O)O)CCCN1; 2Pal = N[C@@H](Cc1ccccn1)C(=O)O; S8 = C=CCCCCCC[C@](C)(N)C(=O)O; hSer = N[C@@H](CCO)C(=O)O

T1: full-length beta-Catenin (Uniprot ID P35222) (Homo sapiens (Human), UniProt P35222 1-781)
T1 construct: The assay protocols call it full-length; also called B-Catenin; bCat
T1 sequence: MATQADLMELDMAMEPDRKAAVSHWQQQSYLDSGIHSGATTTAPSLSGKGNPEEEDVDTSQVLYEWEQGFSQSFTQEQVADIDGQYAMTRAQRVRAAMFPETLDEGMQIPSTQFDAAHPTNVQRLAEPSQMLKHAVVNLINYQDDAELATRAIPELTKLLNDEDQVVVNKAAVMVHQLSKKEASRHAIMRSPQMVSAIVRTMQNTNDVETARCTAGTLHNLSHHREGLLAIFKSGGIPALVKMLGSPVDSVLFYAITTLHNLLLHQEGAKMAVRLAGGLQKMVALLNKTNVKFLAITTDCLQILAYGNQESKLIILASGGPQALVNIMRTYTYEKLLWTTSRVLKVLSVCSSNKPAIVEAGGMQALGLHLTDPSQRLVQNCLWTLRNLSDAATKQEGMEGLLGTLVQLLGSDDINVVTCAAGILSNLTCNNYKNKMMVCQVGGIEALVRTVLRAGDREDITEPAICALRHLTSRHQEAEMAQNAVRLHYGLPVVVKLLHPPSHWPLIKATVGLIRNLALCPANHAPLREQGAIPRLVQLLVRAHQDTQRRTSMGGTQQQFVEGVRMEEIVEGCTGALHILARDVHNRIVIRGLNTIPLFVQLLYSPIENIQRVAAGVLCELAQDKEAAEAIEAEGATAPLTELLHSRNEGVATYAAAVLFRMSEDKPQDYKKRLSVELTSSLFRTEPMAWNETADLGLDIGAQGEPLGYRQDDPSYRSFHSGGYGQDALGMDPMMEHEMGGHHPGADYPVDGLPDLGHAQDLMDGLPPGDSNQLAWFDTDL

T2: B-cat-Halo (beta-catenin HaloTag NanoBRET construct expressed in HEK293 cells) (UniProt P35222 1-781)
T2 sequence (looked up): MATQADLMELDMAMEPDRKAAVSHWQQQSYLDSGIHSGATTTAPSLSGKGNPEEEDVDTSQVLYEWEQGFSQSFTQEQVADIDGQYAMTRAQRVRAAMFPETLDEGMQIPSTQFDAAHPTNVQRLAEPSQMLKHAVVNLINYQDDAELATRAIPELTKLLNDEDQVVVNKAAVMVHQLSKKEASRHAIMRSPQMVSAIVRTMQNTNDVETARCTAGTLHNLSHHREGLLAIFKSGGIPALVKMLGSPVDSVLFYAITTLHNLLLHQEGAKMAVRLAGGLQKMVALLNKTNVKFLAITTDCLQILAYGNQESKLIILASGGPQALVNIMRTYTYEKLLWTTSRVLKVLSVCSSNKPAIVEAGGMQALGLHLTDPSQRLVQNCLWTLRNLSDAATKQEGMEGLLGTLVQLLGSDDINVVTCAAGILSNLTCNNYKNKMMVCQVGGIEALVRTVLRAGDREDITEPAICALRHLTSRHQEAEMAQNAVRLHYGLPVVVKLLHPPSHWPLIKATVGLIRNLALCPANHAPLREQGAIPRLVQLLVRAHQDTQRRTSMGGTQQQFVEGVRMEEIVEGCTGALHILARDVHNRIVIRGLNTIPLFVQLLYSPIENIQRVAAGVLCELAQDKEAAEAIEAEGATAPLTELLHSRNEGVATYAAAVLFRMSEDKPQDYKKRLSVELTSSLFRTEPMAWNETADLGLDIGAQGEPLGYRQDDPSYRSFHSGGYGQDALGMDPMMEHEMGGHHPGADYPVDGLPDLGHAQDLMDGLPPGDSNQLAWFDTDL

T3: full-length beta-Catenin (Uniprot ID P35222) (Homo sapiens (Human), UniProt P35222 2-781)
T3 construct: full-length; also called bCat; B-Catenin
T3 sequence: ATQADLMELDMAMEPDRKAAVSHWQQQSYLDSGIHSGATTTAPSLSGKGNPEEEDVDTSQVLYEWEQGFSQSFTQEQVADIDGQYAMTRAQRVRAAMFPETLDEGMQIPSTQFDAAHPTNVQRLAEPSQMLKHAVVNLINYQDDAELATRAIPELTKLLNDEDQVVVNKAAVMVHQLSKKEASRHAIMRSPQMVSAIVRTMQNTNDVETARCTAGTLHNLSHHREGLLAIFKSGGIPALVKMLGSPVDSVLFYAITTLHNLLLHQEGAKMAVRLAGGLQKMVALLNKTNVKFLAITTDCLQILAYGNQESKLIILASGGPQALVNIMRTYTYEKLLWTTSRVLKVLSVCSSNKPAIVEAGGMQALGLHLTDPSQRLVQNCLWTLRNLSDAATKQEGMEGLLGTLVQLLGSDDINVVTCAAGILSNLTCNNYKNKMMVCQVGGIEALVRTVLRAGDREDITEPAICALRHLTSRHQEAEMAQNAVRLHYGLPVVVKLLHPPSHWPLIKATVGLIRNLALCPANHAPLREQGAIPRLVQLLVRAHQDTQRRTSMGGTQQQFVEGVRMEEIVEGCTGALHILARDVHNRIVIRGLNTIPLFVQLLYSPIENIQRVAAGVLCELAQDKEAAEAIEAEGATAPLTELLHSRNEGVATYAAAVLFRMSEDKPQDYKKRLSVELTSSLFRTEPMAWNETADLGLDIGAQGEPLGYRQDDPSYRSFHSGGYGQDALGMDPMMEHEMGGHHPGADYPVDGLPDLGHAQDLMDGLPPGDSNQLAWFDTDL


Assays:
[1] = molecular target: T1, full-length beta-Catenin (Uniprot ID …); test: fluorescence polarization competition; full-length beta-catenin with 5FAM-labelled TCF4 10-53 peptide as competitor
Protocol: (§1) The plate was incubated protected from light for 60 minutes at 20° C. prior to read. Reads were performed on a CLARIOstar plate reader (BMG Labtech) in duplicate, and data were fitted to a 1:1 binding model with hill slope using an in-house script. All provided concentrations are final concentrations.

[2] = molecular target: T1, full-length beta-Catenin (Uniprot ID …); test: AlphaScreen competition; full-length beta-catenin with biotin-labelled TCF4 10-53 peptide as competitor
Protocol: as §1, with “Equal volume of the titrated peptide was added to the” for “The”, “and” for “was”, “incubated for 15 minutes at 20° C. Then 4 uL of donor and 4 uL acceptor beads at 10 ug/mL were added to the plate, for a 16 uL reaction pool and” for “incubated”

[3] = molecular target: T2, B-cat-Halo (beta-catenin HaloTag …); test: cell-based or functional assay
[4] = molecular target: T3, full-length beta-Catenin (Uniprot ID …); test: fluorescence polarization competition; displaces 5FAM-TCF4(10-53) from full-length beta-catenin
Protocol: as §1

EC50 [1] [nM] | EC50 [2] [nM] | NanoBRET Abs IC50 [3] [nM] | IC50 [4] [nM] | Binder
3760 | 194 |  |  | Ac-[αAllylPro]DA[B5(4)]DDAA[Phe(3-F)]V[S8]FWQ-NH2 (staple 1-4, 4-11; not fully specified; printed as Ac-PL3-Asp-Ala-B5-Asp-Asp-Ala-Ala-3FF-Val-S8-Phe-Trp-Gln-NH2, Stapled (stitched) peptide; also called Ac-PL3-Asp-Ala-B5-Asp-Asp-Ala-Ala-3FF-Val-S8-Phe-Trp-Gln-NH2) [I-265]
5000 | 347 |  |  | Ac-[αAllylPro]DA[B5(4)]DDAAFV[S8][Phe(4-F)]WQ-NH2 (staple 1-4, 4-11, Stapled (stitched) peptide; also called Ac-PL3-Asp-Ala-B5-Asp-Asp-Ala-Ala-Phe-Val-S8-4FF-Trp-Gln-NH2) [I-261]
3430 | 329 |  |  | XDAXDDAAFVXXWQ (not fully specified; N-terminal Ac; PL3 at 1; B5 at 4; S8 at 11; 1NapA at 12; C-terminal NH2; staples PL3(1)-B5(4) and B5(4)-S8(11) by olefin metathesis, Stapled (stitched) peptide; also called Ac-PL3-Asp-Ala-B5-Asp-Asp-Ala-Ala-Phe-Val-S8-1NapA-Trp-Gln-NH2) [I-276]
5000 | 626 |  |  | XDAXDDAAFVXFW (not fully specified; N-terminal Ac; PL3 at 1; B5 at 4; S8 at 11; C-terminal NH2; staples PL3(1)-B5(4) and B5(4)-S8(11) by olefin metathesis, Stapled (stitched) peptide; also called Ac-PL3-Asp-Ala-B5-Asp-Asp-Ala-Ala-Phe-Val-S8-Phe-Trp-NH2) [I-289]
5000 | 864 |  |  | XDAXDDAAFVXFWQ (not fully specified; N-terminal Ac; PL3 at 1; B5 at 4; S8 at 11; 34FF at 12; C-terminal NH2; staples PL3(1)-B5(4) and B5(4)-S8(11) by olefin metathesis, Stapled (stitched) peptide; also called Ac-PL3-Asp-Ala-B5-Asp-Asp-Ala-Ala-Phe-Val-S8-34FF-Trp-Gln-NH2) [I-263]
5000 | 859 |  |  | XDAXDDAAFVXXWQ (not fully specified; N-terminal Ac; PL3 at 1; B5 at 4; S8 at 11; 1NapA at 12; C-terminal NH2; staples PL3(1)-B5(4) and B5(4)-S8(11) by olefin metathesis, Stapled (stitched) peptide; also called Ac-PL3-Asp-Ala-B5-Asp-Asp-Ala-Ala-Phe-Val-S8-1NapA-Trp-Gln-NH2) [I-275]
3290 | 303 |  |  | XDAXDDAAFVXFW (not fully specified; N-terminal Ac; PL3 at 1; B5 at 4; S8 at 11; C-terminal NH2; staples PL3(1)-B5(4) and B5(4)-S8(11) by olefin metathesis, Stapled (stitched) peptide; also called Ac-PL3-Asp-Ala-B5-Asp-Asp-Ala-Ala-Phe-Val-S8-Phe-Trp-NH2) [I-290]
5000 | 364 |  |  | Ac-[αAllylPro]DA[B5(4)]DDAA[Phe(3-F)]V[S8]FWQ-NH2 (staple 1-4, 4-11; not fully specified; printed as Ac-PL3-Asp-Ala-B5-Asp-Asp-Ala-Ala-3FF-Val-S8-Phe-Trp-Gln-NH2, Stapled (stitched) peptide; also called Ac-PL3-Asp-Ala-B5-Asp-Asp-Ala-Ala-3FF-Val-S8-Phe-Trp-Gln-NH2) [I-264]
5000 | 835 |  |  | Ac-[αAllylPro]DA[B5(17)]D[2Pal]AAFV[S8]FWQ-NH2 (staple 1-4, 4-11, Stapled (stitched) peptide; also called Ac-PL3-Asp-Ala-B5-Asp-2PyrA-Ala-Ala-Phe-Val-S8-Phe-Trp-Gln-NH2) [I-270]
 |  | > 20000 | 72 | Ac-[αAllylPro]DN[B5(15)]DEAAF[hSer][S8]F[Bta]Q-NH2 (staple 1-4, 4-11; not fully specified; printed as Ac-PL3-Asp-Asn-B5-Asp-Glu-Ala-Ala-Phe-Hse-S8-Phe-BztA-Gln-NH2, Stapled peptide composition; later eluting HPLC peak (staple isomer); also called Ac-PL3-Asp-Asn-B5-Asp-Glu-Ala-Ala-Phe-Hse-S8-Phe-BztA-Gln-NH2) [I-1535]
 |  | 42400 | 17 | XDQXDEAAFQXFXQ (not fully specified; N-terminal Ac; PL3 at 1, B5 at 4, S8 at 11 (staples PL3-B5 and B5-S8 by olefin metathesis); BztA at 13; C-terminal NH2, Stapled peptide composition; Same description as I-1539; later eluting HPLC peak (staple isomer); also called Ac-PL3-Asp-Gln-B5-Asp-Glu-Ala-Ala-Phe-Gln-S8-Phe-BztA-Gln-NH2) [I-1540]
 |  | 37900 | 71 | Ac-[αAllylPro]D[hSer][B5(15)]DEAAFL[S8]F[Bta]Q-NH2 (staple 1-4, 4-11, Stapled peptide composition; also called Ac-PL3-Asp-Hse-B5-Asp-Glu-Ala-Ala-Phe-Leu-S8-Phe-BztA-Gln-NH2) [I-1546]
 |  | 15300 | 22 | Ac-[αAllylPro]DF[B5(23)]DEAAFL[S8]F[Bta]Q-NH2 (staple 1-4, 4-11, Stapled peptide composition; also called Ac-PL3-Asp-Phe-B5-Asp-Glu-Ala-Ala-Phe-Leu-S8-Phe-BztA-Gln-NH2) [I-1550]
 |  | > 20000 | 61 | XDSXDEAAFQXFXQ (not fully specified; N-terminal Ac; PL3 at 1, B5 at 4, S8 at 11 (staples PL3-B5 and B5-S8 by olefin metathesis); Hse at 3; BztA at 13; C-terminal NH2, Stapled peptide composition; earlier eluting HPLC peak (staple isomer); also called Ac-PL3-Asp-Hse-B5-Asp-Glu-Ala-Ala-Phe-Gln-S8-Phe-BztA-Gln-NH2) [I-1544]
